For ten variants, response (Arbitrary Units) results are on record in article PMC11784217.

The labels stand for the following.
B1: wild-type US28 receptor with a C-terminal natural peptide tag (US28-NP) [human cytomegalovirus (HCMV)] / LgBiT-Gα12 [not stated] (parent)
chain 1: MTPTTTTAELTTEFDYDEDATPCVFTDVLNQSKPVTLFLYGVVFLFGSIGNFLVIFTITWRRRIQCSGDVYFINLAAADLLFVCTLPLWMQYLLDHNSLASVPCTLLTACFYVAMFASLCFITEIALDRYYAIVYMRYRPVKQACLFSIFWWIFAVIIAIPHFMVVTKKDNQCMTDYDYLEVSYPIILNVELMLGAFVIPLSVISYCYYRISRIVAVSQSRHKGRIVRVLIAVVLVFIIFWLPYHLTLFVDTLKLLKWISSSCEFERSLKRALILTESLAFCHCCLNPLLYVFVGTKFRQELHCLLAEFRQRLFSRDVSWYHSMSFSRRSSPSRRETSSDTLSDEVCRVSQIIP
chain 2: MSGVVRTLSRCLLPAEAGGARERRAGSGARDAEREARRRSRDIDALLARERRAVRRLVKILLLGAGESGKSTFLKQMRIIHGREFDQKALLEFRDTIFDNILKGSRVLVDARDKLGIPWQYSENEKHGMFLMAFENKAGLPVEPATFQLYVPALSALWRDSGIREAFSRRSEFQLGESVKYFLDNLDRIGQLNYFPSKQDILLARKATKGIVEHDFVIKKIPFKMVDVGGQRSQRQKWFQCFDGITSILFMVSSSEYDQVLMEDRRTNRLVESMNIFETIVNNKLFFNVSIILFLNKMDLLVEKVKTVSIKKHFPDFRGDPHRLEDVQRYLVQCFDRKRRNRSKPLFHHFTTAIDTENVRFVFHAVKDTILQENLKDIMLQ
B2: wild-type US28 receptor with a C-terminal natural peptide tag (US28-NP) [human cytomegalovirus (HCMV)] / LgBiT-Gαq [not stated] (parent)
chain 1: B1 chain 1
chain 2: MTLESIMACCLSEEAKEARRINDEIERQLRRDKRDARRELKLLLLGTGESGKSTFIKQMRIIHGSGYSDEDKRGFTKLVYQNIFTAMQAMIRAMDTLKIPYKYEHNKAHAQLVREVDVEKVSAFENPYVDAIKSLWNDPGIQECYDRRREYQLSDSTKYYLNDLDRVADPAYLPTQQDVLRVRVPTTGIIEYPFDLQSVIFRMVDVGGQRSERRKWIHCFENVTSIMFLVALSEYDQVLVESDNENRMEESKALFRTIITYPWFQNSSVILFLNKKDLLEEKIMYSHLVDYFPEYDGPQRDAQAAREFILKMFVDLNPDSDKIIYSHFTCATDTENIRFVFAAVKDTILQLNLKEYNLV

Variants of B1 are the subject of the first experiment. Put plainly: NanoBiT nLuc complementation assay in live HEK-293 cells (Nano-Glo live cell assay), area under the curve. The settings on record: with LgBiT-Gα12, 18 hours post-transfection media exchanged with serum-free DMEM, 6 hours later luciferase activity monitored for 60 minutes, parent: 2.2e+07, read off a plot.
As to chain 1 D128A R129A Y130A, the response (Arbitrary Units) was 2.8e+06.

Turning to chain 1 R225A, the response (Arbitrary Units) worked out at 1.1e+07.

chain 1 K223A: the response (Arbitrary Units) amounted to 8.9e+06.

With chain 1 S220A, the response (Arbitrary Units) worked out at 1.7e+07. On the same count and under the same terms, the figure for chain 1 S218A is 6.8e+06.

Variants of B2 are the subject of a further experiment. Described as above. As to conditions: with LgBiT-Gαq, 18 hours post-transfection media exchanged with serum-free DMEM, 6 hours later luciferase activity monitored for 60 minutes, parent: 2.9e+07, read off a plot.
As to chain 1 D128A R129A Y130A, the response (Arbitrary Units) was 6e+06.

Take chain 1 S218A: the response (Arbitrary Units) was determined as 1.8e+07. Still for that read-out and setting: the figure for chain 1 S220A is 3e+07. Still for that read-out and setting: the figure for chain 1 R225A is 1.6e+07; for chain 1 K223A it is 1.7e+07.
